# Assay results published in patent US7829301B2, “Screening assays for binding antagonists of the AMD-associated variant of factor H (H384)” (The University of Manchester, priority 2006, dated 2010).
# T1: FMOD (Bos taurus, UniProt P13605)
# T1 construct: FMOD was isolated from bovine articular cartilage; from tissue; host or cells: bovine articular cartilage
# T1 sequence (P13605 19-376): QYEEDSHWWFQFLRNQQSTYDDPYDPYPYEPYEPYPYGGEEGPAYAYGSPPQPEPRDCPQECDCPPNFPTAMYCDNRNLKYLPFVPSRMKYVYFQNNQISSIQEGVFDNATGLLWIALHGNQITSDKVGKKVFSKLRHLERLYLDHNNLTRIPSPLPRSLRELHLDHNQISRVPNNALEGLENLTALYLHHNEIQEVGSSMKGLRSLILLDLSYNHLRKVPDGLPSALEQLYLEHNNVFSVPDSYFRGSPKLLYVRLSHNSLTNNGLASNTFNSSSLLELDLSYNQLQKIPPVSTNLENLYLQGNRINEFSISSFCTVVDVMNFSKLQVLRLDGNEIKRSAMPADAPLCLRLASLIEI
# B1: FHCCP6-8(Y384): recombinant Factor H CCPs 6-8, Y384 variant obtained by site-directed mutagenesis (SEQ ID NO: 3) (protein, listed as Homo sapiens)
# chain: MGTLKPCDYPDIKHGGLYHENMRRPYFPVAVGKYYSYYCDEHFETPSGSYWDHIHCTQDGWSPAVPCLRKCYFPYLENGYNQNYGRKFVQGKSIDVACHPGYALPKAQTTVTCMENGWSPTPRCIRVKTCSKSSIDIENGFISESQYTYALKEKAKYQCKLGYVTADGETSGSITCGKDGWSAQPTCI
# modifications: VARIANT (1)...(188) FHCCP6-8 (Y384 allotype of mature Factor H)
# Tests used:
# FMOD = target: T1, FMOD; experiment: Protein/protein binding assay with coated FMOD; set-up: species or system bovine
# Method: FMOD was isolated from bovine articular cartilage (Heinghrd et al., (1986) J. Biol. Chem. 261, 13866-13872) and recombinant CRP was obtained from Calbiochem. Deglycosylated FMOD was prepared by treatment with N-glycosiadase F (Roche Applied Science) as previously described (Sjöberg et al. (2005) J. Biol. Chem. 280, 32301-32308).
# CRP or FMOD was coated overnight at 4° C. onto microtiter plates (Maxisorp, Nunc) at a concentration of 10 μg/ml in 75 mM sodium carbonate buffer, pH 9.6. Wells treated only with coating buffer or 1% (w/v) BSA (Sigma) in coating buffer (for the assays involving FMOD) were used as negative controls. Between each step the wells were washed extensively with 50 mM Tris-HCl, 150 mM NaCl, 0.1% (v/v) Tween 20, pH 7.5. All wells were blocked with 1% (w/v) BSA (Sigma) in phosphate buffered saline (Invitrogen) for 1 hour at 37° C. […] The amount of bound protein was assessed using a goat polyclonal anti-FH antibody (Quidel, Cat # A312) followed by HRP-labeled anti-goat secondary antibodies (Dako) and the OPD development kit (Dako). Detection of biotinylated protein was performed using a StreptABComplex/HRP-kit from Dako, and in both cases the absorbance at 490 nm was measured to quantify protein binding.
# [1] = Microtitre plate assay: biotinylated-4IS heparin binding to immobilized proteins
# Method: Alternatively, the unlabelled FHCCP6-8(H384), FHCCP6-8(Y384) and mutant proteins (i.e., K370A, R386A, K387A in the context of the FHCCP6-8(H384) construct) were adsorbed at 1 μg/ml in PBS onto microtitre plates (Nunc Maxisorb, Kastrup, Denmark) and their ligand-binding activities at pH 7.3 were determined using biotinylated-4IS heparin essentially as described in Mahoney et al. (2005) ibid. Plate assays were carried out in 20 mM HEPES, 130 mM NaCl, 0.05% (v/v) Tween-20, pH 7.3 and the level of bound heparin determined as described above for the biotinylated proteins.
# In these plate assays all data points were determined in quadruplicate from each of two independent experiments.
molecule,measurement,setting,value
B1,binding to immobilized FMOD relative to the other variant,"FMOD; biotinylated FHCCP6-8 variants, all concentrations tested",significantly stronger signals
same,affinity for FMOD compared to H384 variant,FMOD; direct binding assay,affinity is increased
same,binding to 4IS heparin relative to FHCCP6-8(H384),[1],bind less well
